Reference: publication PMC8163081 (Science Advances, 2021)

Key:
hd-α-actinin-2 (human) [1] = molecular target: hd-α-actinin-2 (human) (UniProt P35609); assay: ITC
hd-α-actinin-2 (human) [2] = molecular target: hd-α-actinin-2 (human) (UniProt P35609); assay: SEC-MALS
α-actinin-2 (human) = α-actinin-2 (human) (UniProt P35609); assay: ITC
α-actinin-2 [3] = molecular target: T1, α-actinin-2 (human, UniProt P35609 1-894); assay: SEC-MALS
α-actinin-2 [4] = molecular target: T1, α-actinin-2; assay: ITC
[5] = molecular target: human (nonmuscle) α-actinin-1 (human, UniProt P12814 1-892); assay: SEC-MALS
human (nonmuscle) α-actinin-1, sequence (P12814 whole entry): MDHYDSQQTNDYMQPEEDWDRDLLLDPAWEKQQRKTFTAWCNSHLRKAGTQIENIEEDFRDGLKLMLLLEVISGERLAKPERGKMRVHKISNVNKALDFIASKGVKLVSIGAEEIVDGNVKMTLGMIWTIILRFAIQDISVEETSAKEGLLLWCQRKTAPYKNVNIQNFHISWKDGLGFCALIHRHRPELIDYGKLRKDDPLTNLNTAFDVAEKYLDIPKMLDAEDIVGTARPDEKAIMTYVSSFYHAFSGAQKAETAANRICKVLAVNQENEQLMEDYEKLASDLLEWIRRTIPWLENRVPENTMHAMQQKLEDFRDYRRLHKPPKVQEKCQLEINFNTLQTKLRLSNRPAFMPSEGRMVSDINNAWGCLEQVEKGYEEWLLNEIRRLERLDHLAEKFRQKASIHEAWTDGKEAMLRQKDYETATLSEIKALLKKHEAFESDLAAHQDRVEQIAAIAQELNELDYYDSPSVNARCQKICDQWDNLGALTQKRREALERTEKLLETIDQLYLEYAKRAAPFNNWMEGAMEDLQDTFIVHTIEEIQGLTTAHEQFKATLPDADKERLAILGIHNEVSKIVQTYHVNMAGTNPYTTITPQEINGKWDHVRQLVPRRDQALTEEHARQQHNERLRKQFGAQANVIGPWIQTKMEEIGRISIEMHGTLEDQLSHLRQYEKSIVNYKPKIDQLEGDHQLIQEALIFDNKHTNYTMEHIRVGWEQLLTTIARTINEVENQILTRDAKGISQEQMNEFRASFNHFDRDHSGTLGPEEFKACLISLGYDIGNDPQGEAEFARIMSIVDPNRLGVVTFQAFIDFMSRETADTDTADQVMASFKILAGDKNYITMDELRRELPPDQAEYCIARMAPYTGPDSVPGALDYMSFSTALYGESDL

rod-α-actinin-2 = rod-α-actinin-2 (human, UniProt P35609 274-746); assay: SEC-MALS
rod-α-actinin-2, sequence (P35609 274-746): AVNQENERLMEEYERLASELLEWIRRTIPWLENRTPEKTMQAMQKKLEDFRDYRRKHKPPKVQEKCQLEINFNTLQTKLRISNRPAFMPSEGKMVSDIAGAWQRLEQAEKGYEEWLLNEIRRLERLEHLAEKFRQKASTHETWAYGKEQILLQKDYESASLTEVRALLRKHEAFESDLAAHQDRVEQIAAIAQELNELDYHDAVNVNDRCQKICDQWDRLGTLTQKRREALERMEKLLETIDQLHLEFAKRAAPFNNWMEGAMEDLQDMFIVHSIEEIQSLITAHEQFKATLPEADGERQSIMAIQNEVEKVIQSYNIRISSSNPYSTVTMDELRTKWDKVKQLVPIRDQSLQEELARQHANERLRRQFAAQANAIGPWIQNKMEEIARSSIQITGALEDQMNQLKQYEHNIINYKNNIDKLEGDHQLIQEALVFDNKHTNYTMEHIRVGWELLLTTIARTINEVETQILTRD

α-actinin-2 [6] = molecular target: T1, α-actinin-2; assay: peptide or protein array
[7] = molecular target: α-actinin-2-yellow fluorescent protein (YFP) (human, UniProt P35609 1-894); assay: FRET or BRET
α-actinin-2-yellow fluorescent protein (YFP), sequence (P35609 whole entry): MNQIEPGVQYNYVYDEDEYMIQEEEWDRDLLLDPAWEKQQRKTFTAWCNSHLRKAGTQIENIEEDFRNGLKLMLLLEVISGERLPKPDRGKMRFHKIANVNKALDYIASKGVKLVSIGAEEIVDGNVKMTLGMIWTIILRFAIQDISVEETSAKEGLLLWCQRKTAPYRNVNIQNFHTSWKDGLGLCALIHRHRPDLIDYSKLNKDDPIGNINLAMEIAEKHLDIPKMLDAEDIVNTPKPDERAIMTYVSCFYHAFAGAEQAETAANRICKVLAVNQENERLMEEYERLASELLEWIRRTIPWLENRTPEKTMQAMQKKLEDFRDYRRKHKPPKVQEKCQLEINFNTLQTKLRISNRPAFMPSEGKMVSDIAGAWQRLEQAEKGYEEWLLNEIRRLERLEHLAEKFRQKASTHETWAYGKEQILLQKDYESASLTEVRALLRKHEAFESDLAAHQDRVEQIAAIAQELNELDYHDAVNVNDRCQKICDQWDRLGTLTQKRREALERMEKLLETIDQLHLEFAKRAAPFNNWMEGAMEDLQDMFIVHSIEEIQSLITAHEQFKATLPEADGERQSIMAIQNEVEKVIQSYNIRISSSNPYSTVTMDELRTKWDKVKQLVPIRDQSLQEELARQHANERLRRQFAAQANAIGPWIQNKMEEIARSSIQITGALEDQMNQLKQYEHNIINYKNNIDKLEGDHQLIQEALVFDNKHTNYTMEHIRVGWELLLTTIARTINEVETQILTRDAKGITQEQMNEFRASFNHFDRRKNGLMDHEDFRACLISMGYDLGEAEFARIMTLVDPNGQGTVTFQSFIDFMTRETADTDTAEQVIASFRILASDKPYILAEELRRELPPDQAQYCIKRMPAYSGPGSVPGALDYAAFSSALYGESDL

hd-α-actinin-2 (human), sequence (P35609 19-894): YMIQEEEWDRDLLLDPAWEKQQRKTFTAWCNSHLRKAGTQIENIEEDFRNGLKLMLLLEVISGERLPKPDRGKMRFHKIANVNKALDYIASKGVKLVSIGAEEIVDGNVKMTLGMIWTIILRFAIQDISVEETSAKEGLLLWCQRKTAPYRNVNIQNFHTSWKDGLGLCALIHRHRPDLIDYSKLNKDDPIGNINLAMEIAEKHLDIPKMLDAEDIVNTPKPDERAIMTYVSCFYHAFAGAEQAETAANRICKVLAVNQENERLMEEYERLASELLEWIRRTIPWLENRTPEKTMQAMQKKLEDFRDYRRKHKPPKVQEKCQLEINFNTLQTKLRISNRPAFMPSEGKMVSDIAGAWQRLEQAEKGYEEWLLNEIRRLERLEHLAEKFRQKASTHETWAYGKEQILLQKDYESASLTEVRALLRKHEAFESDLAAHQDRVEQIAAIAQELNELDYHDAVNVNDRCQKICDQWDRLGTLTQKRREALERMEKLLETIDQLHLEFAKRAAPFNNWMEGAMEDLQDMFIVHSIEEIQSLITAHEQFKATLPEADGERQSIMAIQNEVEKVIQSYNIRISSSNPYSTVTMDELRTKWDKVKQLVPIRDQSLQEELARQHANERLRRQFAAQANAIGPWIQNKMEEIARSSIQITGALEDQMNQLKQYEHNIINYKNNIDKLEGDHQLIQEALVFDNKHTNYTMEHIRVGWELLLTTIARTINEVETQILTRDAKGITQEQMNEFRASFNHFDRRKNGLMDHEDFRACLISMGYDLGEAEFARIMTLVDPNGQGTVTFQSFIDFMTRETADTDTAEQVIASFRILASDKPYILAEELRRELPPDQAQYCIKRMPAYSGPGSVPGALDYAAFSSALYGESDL
T1 sequence (P35609 whole entry): as the sequence (P35609 whole entry) above
α-actinin-2 (human), sequence (P35609 whole entry): as above

Δ91-FATZ-1 (from UniProt Q9NP98 92-299) (domain or fragment)
Kd (hd-α-actinin-2 (human) [1]): 260 nM
stoichiometry N (Δ91-FATZ-1 per hd-α-actinin-2) (hd-α-actinin-2 (human) [1]): 1
stoichiometry N (Δ91-FATZ-1 per hd-α-actinin-2) (hd-α-actinin-2 (human) [2]): 1

Δ91-FATZ-1-trx (domain or fragment)
Kd1 (two-site binding model, first binding event) (α-actinin-2 (human)): 7.8 nM
Kd2 (two-site binding model, second binding event) (α-actinin-2 (human)): 408 nM

trx-Δ91-FATZ-1 (domain or fragment)
Kd (α-actinin-2 (human)): 1500 nM
stoichiometry N (α-actinin-2 (human)): 1.3

B1: FATZ-1 (filamin-, α-actinin-, and telethonin-binding protein of the Z-disk) (natural protein, human, UniProt Q9NP98 1-299, looked up)
chain: MPLSGTPAPNKKRKSSKLIMELTGGGQESSGLNLGKKISVPRDVMLEELSLLTNRGSKMFKLRQMRVEKFIYENHPDVFSDSSMDHFQKFLPTVGGQLGTAGQGFSYSKSNGRGGSQAGGSGSAGQYGSDQQHHLGSGSGAGGTGGPAGQAGRGGAAGTAGVGETGSGDQAGGEGKHITVFKTYISPWERAMGVDPQQKMELGIDLLAYGAKAELPKYKSFNRTAMPYGGYEKASKRMTFQMPKFDLGPLLSEPLVLYNQNLSNRPSFNRTPIPWLSSGEPVDYNVDIGIPLDGETEEL
stoichiometry N (α-actinin-2 [3]): 2 FATZ molecules per α-actinin-2 dimer

B2: Δ91-FATZ-1 (domain or fragment, human, UniProt Q9NP98 92-299, looked up)
chain: PTVGGQLGTAGQGFSYSKSNGRGGSQAGGSGSAGQYGSDQQHHLGSGSGAGGTGGPAGQAGRGGAAGTAGVGETGSGDQAGGEGKHITVFKTYISPWERAMGVDPQQKMELGIDLLAYGAKAELPKYKSFNRTAMPYGGYEKASKRMTFQMPKFDLGPLLSEPLVLYNQNLSNRPSFNRTPIPWLSSGEPVDYNVDIGIPLDGETEEL
dH (first binding event) (α-actinin-2 [4]): -26.5 kcal/mol
stoichiometry N [5]: 2 Δ91-FATZ-1 per α-actinin-1 (2:1 complex)
stoichiometry N (α-actinin-2 [3]): 2 Δ91-FATZ-1 per α-actinin-2 dimer
stoichiometry N (rod-α-actinin-2): 2 Δ91-FATZ-1 per rod-α-actinin-2 dimer

B3: FATZ-2 (natural protein, human, UniProt Q9NPC6 1-264, looked up)
chain: MLSHNTMMKQRKQQATAIMKEVHGNDVDGMDLGKKVSIPRDIMLEELSHLSNRGARLFKMRQRRSDKYTFENFQYQSRAQINHSIAMQNGKVDGSNLEGGSQQAPLTPPNTPDPRSPPNPDNIAPGYSGPLKEIPPEKFNTTAVPKYYQSPWEQAISNDPELLEALYPKLFKPEGKAELPDYRSFNRVATPFGGFEKASRMVKFKVPDFELLLLTDPRFMSFVNPLSGRRSFNRTPKGWISENIPIVITTEPTDDTTVPESEDL
stoichiometry N (α-actinin-2 [3]): 2 FATZ molecules per α-actinin-2 dimer

B4: LM2 peptide (peptide, UniProt Q9NP98 216-240, looked up)
peptide: PKYKSFNRTAMPYGGYEKASKRMTF
Kd (α-actinin-2 [4]): 315 nM
stoichiometry N (α-actinin-2 [4]): 1.9

B5: FATZ-1 peptide comprising residues 217 to 231 (peptide array) (peptide, UniProt Q9NP98 217-231, looked up)
peptide: KYKSFNRTAMPYGGY
binding result (α-actinin-2 [6]): binds

B6: FATZ-3 (natural protein, human, UniProt Q8TDC0 1-251, looked up)
chain: MIPKEQKGPVMAAMGDLTEPVPTLDLGKKLSVPQDLMMEELSLRNNRGSLLFQKRQRRVQKFTFELAASQRAMLAGSARRKVTGTAESGTVANANGPEGPNYRSELHIFPASPGASLGGPEGAHPAAAPAGCVPSPSALAPGYAEPLKGVPPEKFNHTAISKGYRCPWQEFVSYRDYQSDGRSHTPSPNDYRNFNKTPVPFGGPLVGGTFPRPGTPFIPEPLSGLELLRLRPSFNRVAQGWVRNLPESEEL
stoichiometry N (α-actinin-2 [3]): 2 FATZ molecules per α-actinin-2 dimer

B7: ECFP-tagged FATZ-1 (WT FATZ-1) (natural protein, human, UniProt Q9NP98 1-299, looked up)
chain: B1 chain
FRET ratio [7]: 0.085

B8: ECFP-tagged FATZ-2 (WT) (natural protein, human, UniProt Q9NPC6 1-264, looked up)
chain: B3 chain
FRET ratio [7]: 0.087
